In the assay the target is human angiotensin-converting enzyme 2 (human) (UniProt Q9BYF1). Kind of assay: SPR. A general note: SPR reads the build-up and loss of mass on a sensor chip optically.

For one substance, Kd results are on record in article doi:10.1101/2021.06.14.448436.

Sequence of UniProt Q9BYF1 (Q9BYF1 18-805): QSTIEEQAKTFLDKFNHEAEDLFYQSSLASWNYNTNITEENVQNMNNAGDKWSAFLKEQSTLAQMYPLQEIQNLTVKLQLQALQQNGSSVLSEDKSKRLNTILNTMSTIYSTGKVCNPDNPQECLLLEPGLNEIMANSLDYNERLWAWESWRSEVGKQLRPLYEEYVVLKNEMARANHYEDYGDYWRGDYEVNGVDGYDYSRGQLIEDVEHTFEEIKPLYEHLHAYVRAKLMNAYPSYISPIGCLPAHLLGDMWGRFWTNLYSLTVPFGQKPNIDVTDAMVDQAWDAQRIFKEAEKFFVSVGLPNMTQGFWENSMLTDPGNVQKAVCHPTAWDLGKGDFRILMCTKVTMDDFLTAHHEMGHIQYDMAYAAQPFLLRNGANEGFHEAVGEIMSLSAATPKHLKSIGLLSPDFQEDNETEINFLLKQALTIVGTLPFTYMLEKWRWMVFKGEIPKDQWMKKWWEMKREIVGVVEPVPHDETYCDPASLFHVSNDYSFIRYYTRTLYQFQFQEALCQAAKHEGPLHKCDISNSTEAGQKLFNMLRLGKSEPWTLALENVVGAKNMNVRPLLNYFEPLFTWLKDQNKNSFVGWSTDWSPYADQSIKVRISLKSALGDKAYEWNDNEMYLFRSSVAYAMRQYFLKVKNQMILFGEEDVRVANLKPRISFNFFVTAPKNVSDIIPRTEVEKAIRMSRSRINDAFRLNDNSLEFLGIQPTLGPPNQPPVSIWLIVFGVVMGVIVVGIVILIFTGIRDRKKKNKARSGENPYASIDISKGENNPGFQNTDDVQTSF

One may read the Kd as the concentration at which binding is half-saturated. A lower Kd goes with tighter binding. Substance “SARS-CoV-2 trimeric Spike protein, wild-type, prefusion-stabilised” registered a dissociation constant (Kd) of 6.4 nM.
